Several values for one entry are separate records, joined by “and”; a condition that tells them apart may be missing. Identical values can stand only once. Like-named read-outs stand apart in the source and are kept apart here.
Assays:
[1] = IV
Source text: (§1) This value was assumed to be constant in the estimates of absolute bioavailability.

[2] = Source text: as §1
(§2) The portal bioavailability provides an estimate of drug absorption from oral delivery. […] This value is used to estimate bioavailability relative to subcutaneous.

[3] = Estimates of bioavailability (absolute, portal, relative to subcutaneous)
Source text: as §1, §2

[4] = Insulin and 4-CNAB stability in simulated gastric fluid (HPLC); conditions: 37° C.
Experimental: The SGF was prepared with and without pepsin, a gastric enzyme. SGF pH 1.2 was prepared as per the USP NF 26 guidelines. 2 g sodium chloride and 3.2 g of pepsin were weighed and added to a suitable container, and deionized water was added to reach one liter in volume. If necessary, the pH was adjusted to 1.2 by addition of concentrated HCl or NaOH. A second SGF solution omitting the pepsin was also prepared.
Four 50 ml samples of SGF (two with pepsin and two without) were placed into a jacketed vessel connected to a circulating water bath set at 37° C. The solutions were stirred with magnetic stir bars for ten minutes to allow the solutions to reach 37° C. and reach thermal equilibrium.
The term “% of theoretical” as used herein, means the percent of the concentration (mg/mL) of withdrawn solution at the time-point the sample was taken as compared to the theoretical concentration (mg/mL) of the measuring component for experiment. The standard of deviation for the HPLC analysis is ±5%.

[5] = Stability of insulin in simulated intestinal fluid (HPLC); conditions: for stability of insulin / Insulin % of theoretical: 37° C.
Experimental: The SIF solutions were prepared with and without pancreatic enzyme. SIF pH 7.5 was prepared as per the USP NF 26 guidelines. SIF was prepared by addition of 6.8 g monobasic potassium phosphate and 10 g of pancreatin into a suitable vessel, and deionized water was added to reach a total volume of one liter. If necessary, the pH was adjusted to 7.5 by addition of 0.2 N sodium hydroxide. A second SIF solution omitting the pancreatin, an intestinal enzyme, was also prepared.
Four 50 ml samples of SIF (two with pancreatin and two without) were placed into a jacketed vessel connected to a circulating water bath set at 37° C. The solutions were stirred with magnetic stir bars for ten minutes to allow the solutions to reach 37° C. and reach thermal equilibrium.

[6] = dose 8 μg/kg, individual animals
[7] = dose 9 μg/kg, individual animals

In the case of Insulin: Recombinant human zinc insulin, the “AUC0->∞” value ([1]; dose 8 μg/kg, X ± SD (n = 3)) is reported as 100.7 ± 2.4 ng·min/mL, the “AUC0->∞/Dose” value ([1]; dose 8 μg/kg, X ± SD (n = 3)) is reported as 0.0126 ± 0.0003 kg·min/mL and the Vd ([1]; dose 8 μg/kg, X ± SD (n = 3)) is reported as 0.157 ± 0.005 L/kg. For the same substance, the “AUC0->∞” value [1, 6] was 99.35 ng·min/mL and 99.32 ng·min/mL and 103.4 ng·min/mL, the “C0->∞/Dose” value [1, 6] was 0.0063 kg/mL and 0.0066 kg/mL and 0.0062 kg/mL and the Co [1, 6] was 50.67 ng/mL and 52.64 ng/mL and 49.63 ng/mL. For the same substance, the Vd [1, 6] was 0.15788 L/kg and 0.15198 L/kg and 0.16119 L/kg, the kel [1, 6] was 0.51 min⁻¹ and 0.53 min⁻¹ and 0.48 min⁻¹ and the “AUC0->∞” value ([1]; dose 9 μg/kg, X ± SD (n = 3)) was 99.4 ± 23.6 ng·min/mL. The “AUC0->∞/Dose” value ([1]; dose 9 μg/kg, X ± SD (n = 3)) was 0.0110 ± 0.0026 kg·min/mL, the Co ([1]; dose 9 μg/kg, X ± SD (n = 3)) was 46.1 ± 9.5 ng/mL and the Vd ([1]; dose 9 μg/kg, X ± SD (n = 3)) was 0.201 ± 0.043 L/kg. For the same substance, the kel ([1]; dose 9 μg/kg, X ± SD (n = 3)) was 0.47 ± 0.02 min⁻¹, the “AUC0->∞” value [1, 7] was 99.55 ng·min/mL and 75.67 ng·min/mL and 122.89 ng·min/mL and the “C0->∞/Dose” value [1, 7] was 0.0052 kg/mL and 0.0040 kg/mL and 0.0061 kg/mL. The Co [1, 7] was 46.79 ng/mL and 36.32 ng/mL and 55.30 ng/mL, the Vd [1, 7] was 0.19235 L/kg and 0.2478 L/kg and 0.16275 L/kg and the kel [1, 7] was 0.47 min⁻¹ and 0.48 min⁻¹ and 0.45 min⁻¹. The “AUC0->∞/Dose” value ([1]; dose […], X ± SD (n = 5)) was 0.0062 ± 0.0011 kg·min/mL, the Vd ([1]; dose […], X ± SD (n = 5)) was 0.219 ± 0.068 L/kg and the “C0->∞/Dose” value ([1]; Average over all doses (2.5, 8, 9 μg/kg)) was 0.0053 kg/mL. The “AUC0->T/Dose” value ([2]; SC (subcutaneous) dosing, average) was 0.0052 kg·min/mL, the “Avg AUC0->T/Dose” value ([2]; SC, average of studies 1-8) was 0.005159 kg·min/mL and the “AUC0->T/Dose” value ([2]; SC, study 1, […]) was 0.005601 kg·min/mL. The “AUC0->T/Dose” value ([2]; SC, study 2, […]) was 0.006514 kg·min/mL, the “AUC0->T/Dose” value ([2]; SC, study 3, 0.05 mg/kg) was 0.005562 kg·min/mL and the Insulin ([2]; SC, study 3, 0.05 mg/kg, time 0) was 1.51 uU/ml. It also gave an Insulin ([2]; SC, study 3, 0.05 mg/kg, time 15) of 98.85 uU/ml, an Insulin ([2]; SC, study 3, 0.05 mg/kg, time 30) of 73.59 uU/ml and an Insulin ([2]; SC, study 3, 0.05 mg/kg, time 45) of 61.37 uU/ml. For the same substance, the Insulin ([2]; SC, study 3, 0.05 mg/kg, time 60) was 58.20 uU/ml, the Insulin ([2]; SC, study 3, 0.05 mg/kg, time 120) was 21.34 uU/ml and the Insulin ([2]; SC, study 3, 0.05 mg/kg, time 180) was 8.30 uU/ml. The “AUC0->T/Dose” value ([2]; SC, study 4, 0.05 mg/kg) was 0.004929 kg·min/mL, the Insulin ([2]; SC, study 4, 0.05 mg/kg, time 0) was 0.37 uU/ml and the Insulin ([2]; SC, study 4, 0.05 mg/kg, time 15) was 103.42 uU/ml. The Insulin ([2]; SC, study 4, 0.05 mg/kg, time 30) was 81.64 uU/ml, the Insulin ([2]; SC, study 4, 0.05 mg/kg, time 45) was 68.91 uU/ml and the Insulin ([2]; SC, study 4, 0.05 mg/kg, time 60) was 58.58 uU/ml. The Insulin ([2]; SC, study 4, 0.05 mg/kg, time 90) was 32.01 uU/ml, the Insulin ([2]; SC, study 4, 0.05 mg/kg, time 120) was 21.15 uU/ml and the “AUC0->T/Dose” value ([2]; SC, study 5, 0.05 mg/kg) was 0.001013 kg·min/mL. For the same substance, the Insulin ([2]; SC, study 5, 0.05 mg/kg, time 0) was 0 uU/ml, the Insulin ([2]; SC, study 5, 0.05 mg/kg, time 15) was 34.90 uU/ml and the Insulin ([2]; SC, study 5, 0.05 mg/kg, time 30) was 9.71 uU/ml. The Insulin ([2]; SC, study 5, 0.05 mg/kg, time 45) was 16.57 uU/ml, the Insulin ([2]; SC, study 5, 0.05 mg/kg, time 60) was 10.46 uU/ml and the Insulin ([2]; SC, study 5, 0.05 mg/kg, time 90) was 2.94 uU/ml. For the same substance, the Insulin ([2]; SC, study 5, 0.05 mg/kg, time 120) was 5.05 uU/ml, the “AUC0->T/Dose” value ([2]; SC, study 6, 0.05 mg/kg) was 0.007644 kg·min/mL and the Insulin ([2]; SC, study 6, 0.05 mg/kg, time 15) was 191.67 uU/ml. It also gave an Insulin ([2]; SC, study 6, 0.05 mg/kg, time 30) of 119.71 uU/ml, an Insulin ([2]; SC, study 6, 0.05 mg/kg, time 45) of 121.33 uU/ml and an Insulin ([2]; SC, study 6, 0.05 mg/kg, time 60) of 74.65 uU/ml. The Insulin ([2]; SC, study 6, 0.05 mg/kg, time 90) was 42.88 uU/ml, the Insulin ([2]; SC, study 6, 0.05 mg/kg, time 120) was 25.65 uU/ml and the “AUC0->T/Dose” value ([2]; SC, study 7, 0.05 mg/kg) was 0.005932 kg·min/mL. The Tmax ([2]; SC, study 7, 0.05 mg/kg) was 30 min, the Insulin ([2]; SC, study 7, 0.05 mg/kg, time 0) was 5.85 uU/ml and the Insulin ([2]; SC, study 7, 0.05 mg/kg, time 15) was 90.29 uU/ml. It also gave an Insulin ([2]; SC, study 7, 0.05 mg/kg, time 30) of 125.96 uU/ml, an Insulin ([2]; SC, study 7, 0.05 mg/kg, time 45) of 67.83 uU/ml and an Insulin ([2]; SC, study 7, 0.05 mg/kg, time 60) of 78.19 uU/ml. The Insulin ([2]; SC, study 7, 0.05 mg/kg, time 90) was 45.77 uU/ml, the Insulin ([2]; SC, study 7, 0.05 mg/kg, time 120) was 18.24 uU/ml and the “AUC0->T/Dose” value ([2]; SC, study 8, 0.05 mg/kg) was 0.004079 kg·min/mL. For the same substance, the Insulin ([2]; SC, study 8, 0.05 mg/kg, time 15) was 131.71 uU/ml, the Insulin ([2]; SC, study 8, 0.05 mg/kg, time 30) was 70.90 uU/ml and the Insulin ([2]; SC, study 8, 0.05 mg/kg, time 45) was 66.28 uU/ml. The Insulin ([2]; SC, study 8, 0.05 mg/kg, time 60) was 0.59 uU/ml, the Insulin ([2]; SC, study 8, 0.05 mg/kg, time 90) was 33.96 uU/ml and the Insulin ([2]; SC, study 8, 0.05 mg/kg, time 120) was 14.64 uU/ml. For the same substance, the “FPE (fH)” value ([2]; individual animals n 1-5) was 0.18, the AUC-IP ([2]; intraportal administration, Average) was 9.65 and the “average insulin AUC0→t/Dose” value ([2]; subcutaneous dosing) was 0.00516 kg·min/mL. The AUC-JV ([2]; systemic administration, Average) was 15.53, the BA ([3]; SC (subcutaneous) dosing) was 55.67% and the absolute bioavailability ([3]; SC administration, rat model) was “approximately 56%”. The “maximum absolute bioavailability of insulin” value ([3]; from oral delivery or any other 100% GI absorption into the portal vein, from intraportal results, rat model) was “approximately 60%”, the insulin degraded ([4]; SGF containing pepsin, first sampling point) was 97% and the insulin remained ([4]; SGF containing pepsin, first sampling point (0 minutes)) was 3.0%. For the same substance, the “Insulin % of theoretical” value ([4]; SGF no enzymes, with 4-CNAB, 30 minutes) was 105.7%, the “Insulin % of theoretical” value ([4]; SGF no enzymes, with 4-CNAB, 24 h) was 0% and the “Insulin % of theoretical” value ([4]; SGF with pepsin, with 4-CNAB, 0 minutes) was 3.0%. The “Insulin % of theoretical” value ([4]; SGF with pepsin, without 4-CNAB, 0 minutes) was 3.0%, the “Insulin % of theoretical” value ([4]; SGF without enzymes, without 4-CNAB, 10 minutes) was 100.4% and the “Insulin % of theoretical” value ([4]; SGF without enzymes, without 4-CNAB, 30 minutes) was 100.1%. The “Insulin % of theoretical” value ([4]; SGF without enzymes, without 4-CNAB, 1 h) was 99.4%, the “Insulin % of theoretical” value ([4]; SGF without enzymes, without 4-CNAB, 24 h) was 0% and the “time insulin is stable” value ([4]; SGF without pepsin) was no less than 2 h. The stability of insulin ([5]; SIF in presence of the enzyme (pancreatin)) was “degrades”, the “Insulin % of theoretical” value ([5]; SIF no enzymes, with 4-CNAB, 0 minutes) was 100.2% and the “Insulin % of theoretical” value ([5]; SIF no enzymes, with 4-CNAB, 4 minutes) was 106.3%. For the same substance, the “Insulin % of theoretical” value ([5]; SIF no enzymes, with 4-CNAB, 45 minutes) was 99.1%, the “Insulin % of theoretical” value ([5]; SIF no enzymes, with 4-CNAB, 24 hours) was 105.6% and the “Insulin % of theoretical” value ([5]; SIF with pancreatin, with 4-CNAB, 0 minutes) was 58.9%. For the same substance, the “Insulin % of theoretical” value ([5]; SIF with pancreatin, with 4-CNAB, 4 minutes) was 19.3%, the “Insulin % of theoretical” value ([5]; SIF with pancreatin, with 4-CNAB, 6 minutes) was 5.4% and the “Insulin % of theoretical” value ([5]; SIF without 4-CNAB or enzymes, 0 minutes) was 92.9%. For the same substance, the “Insulin % of theoretical” value ([5]; SIF without 4-CNAB or enzymes, 15 minutes) was 92.7%, the “Insulin % of theoretical” value ([5]; SIF without 4-CNAB or enzymes, 1 hour) was 92.7% and the “Insulin % of theoretical” value ([5]; SIF without 4-CNAB or enzymes, 2 hours) was 94.6%. For the same substance, the “Insulin % of theoretical” value ([5]; SIF without 4-CNAB or enzymes, 24 hours) was 100.4%, the stability of insulin ([5]; SIF without pancreatin) was “stable” and the insulin remained ([5]; SIF, first sampling time point (0 minutes)) was 58.9% and 66.9%.
